What all share (test): SPR; Biacore T200; antibody captured on anti-human Fc (CM5 chip); CD30-MBP flowed at 0, 2, 20 nM (T426: 0, 20, 200 nM), contact 90 s, dissociation 300 s; fit to a 1:1 binding mode; rough-level analysis
Holding throughout (conditions): both partners purified

For one assay, the target named is T1, BpT105-6.
T1 construct: T105 Fv, N side; T6 Fv, C side; one Fab of each Fv; knobs-into-holes Fc; source: Expi293 fragments joined by intein-mediated protein trans-splicing, purified (Superdex 200 Increase); copies: + + +
T1 sequence (chain, as listed by the source, chain 1 of 4): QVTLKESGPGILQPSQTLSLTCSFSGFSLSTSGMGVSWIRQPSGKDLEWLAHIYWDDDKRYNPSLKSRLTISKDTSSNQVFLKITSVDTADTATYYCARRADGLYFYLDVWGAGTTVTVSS
T1 sequence (chain, as listed by the source, chain 2 of 4): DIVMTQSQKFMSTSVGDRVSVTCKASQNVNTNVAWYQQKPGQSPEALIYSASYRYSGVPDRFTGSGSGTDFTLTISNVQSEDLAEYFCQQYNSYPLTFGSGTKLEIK
T1 sequence (chain, as listed by the source, chain 3 of 4): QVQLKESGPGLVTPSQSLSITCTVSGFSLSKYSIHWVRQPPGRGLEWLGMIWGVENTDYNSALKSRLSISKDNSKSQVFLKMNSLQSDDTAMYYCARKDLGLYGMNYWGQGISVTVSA
T1 sequence (chain, as listed by the source, chain 4 of 4): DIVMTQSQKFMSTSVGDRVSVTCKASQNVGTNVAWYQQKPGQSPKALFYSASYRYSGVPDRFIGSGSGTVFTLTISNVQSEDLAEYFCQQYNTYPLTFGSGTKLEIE

In the next assay the target is T2, BpT405-6.
T2 construct: T405 Fv, N side; T6 Fv, C side; one Fab of each Fv; knobs-into-holes Fc; source: Expi293 fragments joined by intein-mediated protein trans-splicing, purified (Superdex 200 Increase); copies: + + +

Another assay concerns the target T3, BpT104-25.
T3 construct: T104 Fv, N side; T25 Fv, C side; one Fab of each Fv; knobs-into-holes Fc; source: Expi293 fragments joined by intein-mediated protein trans-splicing, purified (Superdex 200 Increase); copies: + + +

A further assay addresses T4, BpT10-105.
T4 construct: AC10 Fv, N side; T105 Fv, C side; one Fab of each Fv; knobs-into-holes Fc; source: Expi293 fragments joined by intein-mediated protein trans-splicing, purified (Superdex 200 Increase); copies: + + +

The next assay addresses T5, BpT107-6.
T5 construct: T107 Fv, N side; T6 Fv, C side; one Fab of each Fv; knobs-into-holes Fc; source: Expi293 fragments joined by intein-mediated protein trans-splicing, purified (Superdex 200 Increase); copies: + + +

The next assay deals with T6, BpT104-6.
T6 construct: T104 Fv, N side; T6 Fv, C side; one Fab of each Fv; knobs-into-holes Fc; source: Expi293 fragments joined by intein-mediated protein trans-splicing, purified (Superdex 200 Increase); copies: + + +
T6 sequence (chain, as listed by the source, chain 1 of 4): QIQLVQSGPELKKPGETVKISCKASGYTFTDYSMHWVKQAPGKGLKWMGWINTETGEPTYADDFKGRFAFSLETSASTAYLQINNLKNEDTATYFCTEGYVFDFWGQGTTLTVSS
T6 sequence (chain, as listed by the source, chain 2 of 4): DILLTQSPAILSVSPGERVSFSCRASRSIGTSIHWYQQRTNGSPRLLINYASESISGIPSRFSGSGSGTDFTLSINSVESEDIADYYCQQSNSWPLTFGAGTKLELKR

Another assay deals with T7, BpT107-427.
T7 construct: T107 Fv, N side; T427 Fv, C side; one Fab of each Fv; knobs-into-holes Fc; source: Expi293 fragments joined by intein-mediated protein trans-splicing, purified (Superdex 200 Increase); copies: + + +
T7 sequence (chain, as listed by the source, chain 1 of 4): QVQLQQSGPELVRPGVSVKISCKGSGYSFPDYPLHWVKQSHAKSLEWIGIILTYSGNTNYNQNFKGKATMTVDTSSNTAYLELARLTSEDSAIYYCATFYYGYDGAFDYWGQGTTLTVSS
T7 sequence (chain, as listed by the source, chain 2 of 4): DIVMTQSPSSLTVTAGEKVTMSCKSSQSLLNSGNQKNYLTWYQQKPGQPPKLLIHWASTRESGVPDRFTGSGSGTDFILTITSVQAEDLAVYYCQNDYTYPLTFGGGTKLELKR
T7 sequence (chain, as listed by the source, chain 3 of 4): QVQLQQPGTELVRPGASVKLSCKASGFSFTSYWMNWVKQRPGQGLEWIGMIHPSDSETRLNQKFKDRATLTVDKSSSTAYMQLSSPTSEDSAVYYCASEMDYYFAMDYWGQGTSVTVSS
T7 sequence (chain, as listed by the source, chain 4 of 4): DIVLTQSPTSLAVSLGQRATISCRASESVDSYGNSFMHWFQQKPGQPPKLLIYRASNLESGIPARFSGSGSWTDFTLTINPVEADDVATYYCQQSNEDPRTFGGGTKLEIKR

Another assay has as its target T8, BpT105-405.
T8 construct: T105 Fv, N side; T405 Fv, C side; one Fab of each Fv; knobs-into-holes Fc; source: Expi293 fragments joined by intein-mediated protein trans-splicing, purified (Superdex 200 Increase); copies: + + +

For the next assay, the target named is T9, BpT10-427.
T9 construct: AC10 Fv, N side; T427 Fv, C side; one Fab of each Fv; knobs-into-holes Fc; source: Expi293 fragments joined by intein-mediated protein trans-splicing, purified (Superdex 200 Increase); copies: + + +
T9 sequence (chain, as listed by the source, chain 1 of 4): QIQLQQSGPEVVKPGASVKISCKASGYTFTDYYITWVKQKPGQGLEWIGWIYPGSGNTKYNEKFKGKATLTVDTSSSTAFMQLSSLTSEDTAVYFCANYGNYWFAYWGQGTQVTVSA
T9 sequence (chain, as listed by the source, chain 2 of 4): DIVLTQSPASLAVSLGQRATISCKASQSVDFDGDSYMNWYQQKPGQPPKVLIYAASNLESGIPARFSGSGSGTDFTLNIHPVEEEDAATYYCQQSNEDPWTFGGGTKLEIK

The next assay deals with T10, BpT10-6.
T10 construct: AC10 Fv, N side; T6 Fv, C side; one Fab of each Fv; knobs-into-holes Fc; source: Expi293 fragments joined by intein-mediated protein trans-splicing, purified (Superdex 200 Increase); copies: + + +

For a further assay, the target named is T11, BpT10-104.
T11 construct: AC10 Fv, N side; T104 Fv, C side; one Fab of each Fv; knobs-into-holes Fc; source: Expi293 fragments joined by intein-mediated protein trans-splicing, purified (Superdex 200 Increase); copies: + + +

The next assay deals with T12, BpT25-405.
T12 construct: T25 Fv, N side; T405 Fv, C side; one Fab of each Fv; knobs-into-holes Fc; source: Expi293 fragments joined by intein-mediated protein trans-splicing, purified (Superdex 200 Increase); copies: + + +

The source of these data is article PMC11826918, “Generation of antagonistic biparatopic anti-CD30 antibody from an agonistic antibody by precise epitope determination and utilization of structural characteristics of CD30 molecule” (Antibody Therapeutics, 2025).

T3 sequence (chain, as listed by the source, chain 3 of 4): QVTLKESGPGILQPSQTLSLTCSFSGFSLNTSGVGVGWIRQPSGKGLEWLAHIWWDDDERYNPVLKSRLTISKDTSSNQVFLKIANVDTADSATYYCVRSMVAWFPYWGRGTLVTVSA
T3 sequence (chain, as listed by the source, chain 4 of 4): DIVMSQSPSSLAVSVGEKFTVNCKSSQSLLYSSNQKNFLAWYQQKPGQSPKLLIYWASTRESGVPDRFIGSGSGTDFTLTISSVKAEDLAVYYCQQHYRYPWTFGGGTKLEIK

B1: Maltose-binding protein-fused CD30 (domain or fragment)
chain: FPQDRPFEDTCHGNPSHYYDKAVRRCCYRCPMGLFPTQQCPQRPTDCRKQCEPDYYLDEADRCTACVTCSRDDLVEKTPCAWNSSRVCECRPGMFCSTSAVNSCARCFFHSVCPAGMIVKFPGTAQKNTVCEPASPGVSPACASPENCKEPSSGTIPQAKPTPVSPATSSASTMPVRGGTRLAQEAASKLTRAPDSPSSVGRPSSDPGLSPTQPCPEGSGDCRKQCEPDYYLDEAGRCTACVSCSRDDLVEKTPCAWNSSRTCECRPGMICATSATNSCARCVPYPICAAETVTKPQDMAEKDTTFEAPPLGTQPDCN
modifications: Construct 1-336 includes signal peptide 1-18, taken as cleaved on secretion; C-terminal MBP carrier and His tag left out; disulfide-bonded, likely glycosylated (Expi293)
Regarding B1, the Kd (usually the free concentration of one partner at which half of the binding sites on the other are occupied at equilibrium, for simple one-to-one binding) stood at 0.37 nM with BpT105-6; 0.44 nM with BpT405-6; 0.5 nM in the assay with BpT104-25; 0.066 nM in the assay with BpT10-105; 0.37 nM in the assay with BpT107-6; 0.59 nM with BpT104-6. Further, the Kd came out at 0.6 nM with BpT107-427; 0.67 nM with BpT105-405; 0.58 nM with BpT10-427; 0.27 nM in the assay with BpT10-6; 0.26 nM in the assay with BpT10-104; 0.91 nM with BpT25-405.
